{"source": "patent US20250123280A1", "about": "“LABEL-FREE DETECTION OF PROTEASE ACTIVITY” (OREGON HEALTH & SCIENCE UNIVERSITY, priority 2021, published 2025)", "key": {"cathepsin B": {"target": "T1, cathepsin B (Homo sapiens, UniProt P07858)", "T1 construct": "purchased Bio-Techne", "test": "Cathepsin B assay with peptide 3 and ThT", "assay_type": "biochemical", "conditions": "after treatment with cathepsin B (1000 ng/mL vs 0 ng/mL)", "method": "Peptide 3 was prepared as a 2.0 mg/mL solution in 1× phosphate buffered saline, pH 7.4 and 5% DMSO. In a typical assay experiment, 50 μL of the peptide 3 solution was mixed 50 μL of 50 mM MES buffer, pH 5 with cathepsin B at a concentration between about 0 and about 1000 ng/mL in a 96-well microplate and the plate was incubated at 37° C. for 2 hours. Then, 10 μL of 0.1 μm-filtered 1 mM aqueous ThT solution was added to each well and mixed for a final concentration of 90 μM ThT. After 15-30 min incubation at room temperature, the ThT fluorescence was measured at room temperature using a Tecan Spark 20M microplate reader."}, "[1]": {"test": "ThT fluorescence of self-assembled peptide 2 in assay buffer", "conditions": "peptide 2 0.58 mg/mL in assay buffer, ThT 90 μM", "method": "β-sheet rich nanoplatelet formation by self-assembly of peptide 2. […] Nano Lett. 2017, 17 (9), 5546-5554). […] ThT (90 μM) addition to this solution yielded a bright fluorescence with an emission maximum of about 490 nm (see FIG. 2)."}, "[2]": {"test": "Solubility in aqueous solutions", "assay_type": "physicochemical"}, "[3]": {"target": "T2, Peptide 1 (Fmoc-Phe-Lys-Phe-Glu-Ala-Ala-Asn-Gly-Glu-Glu-Gly-Ser-Gly-Glu-Glu)", "T2 chain": "FKFEAANGEEGSGEE"}, "[4]": {"target": "the molecule itself", "test": "circular dichroism of peptide 1 alone (self-assembly)"}, "[5]": {"target": "the molecule itself", "test": "self-assembly of peptide 2 in assay buffer; centrifugation, TEM, AFM", "experimental": "Transmission electron microscopy (TEM) and atomic force microscopy (AFM) imaging. […] After incubating at 37° C. for 2.0 hours, the formed aggregates were collected by centrifugation and resuspended in ultrapure water. […] TEM images were taken using a Tecnai microscope (FEI). To prepare TEM samples, 5 μL of solutions were placed on carbon film 200 copper mesh TEM grids. Samples were incubated on TEM grids for about 5 minutes and bloated and air dried. Uranyl acetate was prepared in distilled water at 2% w/v and filtered with a 0.1 μm syringe filter before each use. A 20 μl droplet of this solution was placed on Parafilm and the TEM grid was floated on it for 7 minutes. Excess uranyl acetate was blotted using Whatman paper, and the sample is left to dry at room temperature.\nThe morphology of these structures was investigated using transmission electron microscopy (TEM) and atomic force microscopy (AFM). […] AFM experiments were performed to further analyze the morphology of self-assembled nano-platelets."}}, "note": "Ends that are not written are not given here. Peptide text beside a SMILES is read from it. * marks the point of attachment. Fmoc = O=C(OCC1c2ccccc2-c2ccccc21)*", "data": [{"molecule": "Fmoc-FKFELAGGAGEEGSGEEE [peptide 3, cathepsin B substrate motif LAGGAG in place of the legumain substrate]", "values": [{"measurement": "increase in ThT fluorescence", "setting": "cathepsin B", "result": "≤ 72", "unit": "fold"}]}, {"molecule": "C[C@H](NC(=O)[C@H](C)NC(=O)[C@H](CCC(=O)O)NC(=O)[C@H](Cc1ccccc1)NC(=O)[C@H](CCCCN)NC(=O)[C@H](Cc1ccccc1)NC(=O)OCC1c2ccccc2-c2ccccc21)C(=O)N[C@@H](CC(N)=O)C(=O)O", "note": "[peptide 2, Fmoc-FKFEAAN] (Fmoc-FKFEAAN-OH)", "values": [{"measurement": "enhancement in the ThT fluorescence intensity", "setting": "[1]", "result": 45, "unit": "fold"}, {"measurement": "solubility in aqueous solutions", "setting": "[2]", "result": "not soluble in aqueous solutions"}]}, {"molecule": "Recombinant mouse legumain (protein) VPVGVDDPEDGGKHWVVIVAGSNGWYNYRHQADACHAYQIIHRNGIPDEQIIVMMYDDIANSEENPTPGVVINRPNGTDVYKGVLKDYTGEDVTPENFLAVLRGDAEAVKGKGSGKVLKSGPRDHVFIYFTDHGATGILVFPNDDLHVKDLNKTIRYMYEHKMYQKMVFYIEACESGSMMNHLPDDINVYATTAANPKESSYACYYDEERGTYLGDWYSVNWMEDSDVEDLTKETLHKQYHLVKSHTNTSHVMQYGNKSISTMKVMQFQGMKHRASSPISLPPVTHLDLTPSPDVPLTILKRKLLRTNDVKESQNLIGQIQQFLDARHVIEKSVHKIVSLLAGFGETAERHLSERTMLTAHDCYQEAVTHFRTHCFNWHSVTYEHALRYLYVLANLCEAPYPIDRIEMAMDKVCLSHY", "values": [{"measurement": "LC-MS, fraction of peptide 1 cleaved", "setting": "[3]", "result": "almost 30% of the peptide was cleaved by legumain"}, {"measurement": "ON/OFF ratio of the assay in albumin depleted 20% plasma", "setting": "[3]", "result": "improve the ON/OFF ratio of the assay to about 10"}, {"measurement": "ThT emission enhancement at 1 mg/mL peptide 1 (500 ng/mL legumain)", "setting": "[3]", "result": "a 28-fold enhancement in its emission was obtained at 1 mg/mL peptide concentration"}, {"measurement": "ThT emission intensity enhancement at 1000 ng/mL legumain (1.0 mg/mL peptide 1, 2 h)", "setting": "[3]", "result": "about 32 fold at 1000 ng/mL legumain concentration"}, {"measurement": "ThT emission intensity increase at peptide 1 below 0.25 mg/mL (500 ng/mL legumain)", "setting": "[3]", "result": "minimal (1.3-1.4 fold)"}, {"measurement": "ThT fluorescence enhancement at 10.0 ng/mL legumain", "setting": "[3]", "result": "a slight (about 1.3 fold) fluorescence enhancement was obtained at the legumain concentration of 10.0 ng/mL"}, {"measurement": "ThT fluorescence enhancement at 25.0 ng/mL legumain", "setting": "[3]", "result": "an easily detectable (about 3-fold) fluorescence enhancement was detected at 25.0 ng/mL"}, {"measurement": "ThT fluorescence enhancement in 10% plasma (1000 ng/mL legumain, 25 µM ThT)", "setting": "[3]", "result": "a fluorescence enhancement of about 20 fold was obtained in 10% plasma at the legumain concentration of 1000 ng/mL"}, {"measurement": "ThT fluorescence enhancement in 20% human plasma (1000 ng/mL legumain, 90 µM ThT)", "setting": "[3]", "result": "a detectable fluorescence enhancement (about 2.5 fold)"}, {"measurement": "ThT fluorescence intensity at 24 hours relative to 2 hours (1000 ng/mL legumain)", "setting": "[3]", "result": "at 24 hours, the fluorescence intensity was about 2.5 higher compared with the intensity at two hours"}, {"measurement": "limit of detection (LOD) of legumain in the peptide 1 / ThT assay", "setting": "[3]", "result": "about 12 ng/mL (0.21 nM)"}, {"measurement": "limit of quantification (LOQ) of legumain in the peptide 1 / ThT assay", "setting": "[3]", "result": "about 25 ng/mL (0.45 nM)"}, {"measurement": "minimum detectable legumain concentration in 10% plasma", "setting": "[3]", "result": "a minimum detectable concentration between 50 ng/mL to 200 ng/mL"}]}, {"molecule": "Fmoc-FKFEAANGEEGSGEE (also called protein 1; the probe)", "note": "[Peptide 1 (Fmoc-Phe-Lys-Phe-Glu-Ala-Ala-Asn-Gly-Glu-Glu-Gly-Ser-Gly-Glu-Glu)]", "values": [{"measurement": "binding result", "setting": "[4]", "result": "no binding (tested: 0.333 mg/mL)"}]}, {"molecule": "Fmoc-FKFEAAN (Synthetic peptide bought from GenScript (1048.2 g/mol); It is also the product of hydrolysis of peptide 1 by legumain; It self-assembles into many-copy nanoplatelets; also called protein 2; self-assembly precursor)", "note": "[Peptide 2 (Fmoc-FKFEAAN)]", "values": [{"measurement": "binding result", "setting": "[5]", "result": "binds"}]}]}
